Results taken from US20200199231A1 (Genmab, published 2020).

Key:
human CD20 = target: T1, human CD20 (human, UniProt P11836 1-297); assay: flow cytometry on HEK293F cells transiently expressing wild type CD20; PE-conjugated goat anti-human IgG F(ab')2; MFI
T1 construct: whole, on cells; On Daudi and other human B cell lines, on human B cells in blood, or transiently expressed in HEK293F cells (construct pEE12.4CD20HS-GA); also called wild type CD20; WT CD20
T1 sequence (looked up): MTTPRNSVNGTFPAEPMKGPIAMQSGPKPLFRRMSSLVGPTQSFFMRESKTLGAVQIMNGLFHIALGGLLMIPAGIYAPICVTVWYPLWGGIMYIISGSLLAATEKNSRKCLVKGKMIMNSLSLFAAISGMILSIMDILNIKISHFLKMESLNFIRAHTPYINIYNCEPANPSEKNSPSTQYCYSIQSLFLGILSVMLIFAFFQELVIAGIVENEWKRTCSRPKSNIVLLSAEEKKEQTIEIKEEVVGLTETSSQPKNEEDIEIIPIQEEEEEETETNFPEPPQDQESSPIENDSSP
Method: (§1) PCR was performed on a Tgradient Thermocycler 96 (Biometra) using a 35 cycle program of: +95° C. for 15 min, followed by 35 cycles of: +94° C. for 30 sec, anneal: 55° C. for 30 sec and extension: +72° C. for 2 min, followed by a final extension step at 72° C. for 10 min and subsequent storage at 4° C. The completed reactions were analyzed by agarose gel electrophoresis. See Table 11 for details of primer pairs used for colony PCR. DNA sequencing: Plasmid DNA samples were send to AGOWA (Berlin, Germany) for sequence analysis. Sequences were analyzed using the VectorNTI software package (Informax, Frederick, Md., USA).
(§2) Mutagenesis: The mutagenesis was performed, using the QuikChange® XL Site-Directed Mutagenesis kit (Cat 200517-5, Lot 1120630, Stratagene Europe) according to the manufacturer's instructions. Mutagenesis reactions were concentrated using ethanol precipitation and transformed into either oneshot DH5α-TIR competent E. coli cells or electroporated into ElectroTen-Blue® Electroporation-Competent Cells. Colonies were checked by colony PCR and restriction digestion prior to transfection. […] Anti-CD20 Antibody binding: HEK293F cells were taken up in staining buffer (PBS supplemented with 0.1% BSA and 0.02% NaN₃) and added to round bottom plates (1-3×10⁵/well in 100 μL). […] After washing twice in staining buffer, cells were incubated in 50 μL secondary antibody at 4° C. for 30 min. As a secondary antibody, R-Phycoerythrin (PE)-conjugated goat-anti-human IgG F(ab′)₂ was used, as described supra. Next, cells were washed once in staining buffer, re-suspended in 150 μL staining buffer and analyzed on a flow cytometer (FACSCanto-720, Becton Dickinson, San Diego, Calif., USA) and 10,000 events per sample were acquired at high flow rate. Binding curves were analyzed using non-linear regression (sigmoidal dose-response with variable slope) using GraphPad Prism V75.04 software (GraphPad Software, San Diego, Calif., USA).

CD20 KDD mutant [1] = target: T2, CD20 KDD mutant (human, UniProt P11836 1-297); assay: flow cytometry, HEK293F cells expressing CD20 KDD mutant
T2 construct: whole, on cells; Transiently expressed in HEK293F cells; also called T159K/N163D/N166D
T2 sequence (looked up): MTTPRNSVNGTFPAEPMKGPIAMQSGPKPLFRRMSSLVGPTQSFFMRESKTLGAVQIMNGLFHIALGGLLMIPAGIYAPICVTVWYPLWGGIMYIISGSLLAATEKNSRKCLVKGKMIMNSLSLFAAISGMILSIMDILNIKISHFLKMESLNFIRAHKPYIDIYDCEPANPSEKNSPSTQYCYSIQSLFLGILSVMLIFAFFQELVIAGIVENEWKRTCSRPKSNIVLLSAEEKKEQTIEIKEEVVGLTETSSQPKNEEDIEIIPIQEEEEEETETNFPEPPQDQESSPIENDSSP
Method: as §1, §2

CD20 KDD mutant [2] = target: T2, CD20 KDD mutant; assay: flow cytometry, HEK293F transfectants, MFI mutant/MFI wt at 10 µg/mL
Method: (§3) As a secondary antibody, R-Phycoerythrin (PE)-conjugated goat-anti-human IgG F(ab′)₂ was used, as described supra. Next, cells were washed once in staining buffer, re-suspended in 150 μL staining buffer and analyzed on a flow cytometer (FACSCanto-720, Becton Dickinson, San Diego, Calif., USA) and 10,000 events per sample were acquired at high flow rate. Binding curves were analyzed using non-linear regression (sigmoidal dose-response with variable slope) using GraphPad Prism V75.04 software (GraphPad Software, San Diego, Calif., USA).
(§4) Numbers indicate the percentage of binding to the CD20 mutants, relative to binding to wild type CD20, at 10 μg/mL. The percentage of binding was calculated by the following formula: (MFI binding to CD20 mutant)/(MFI binding CD20 wt) × 100%

CD20-AxP [3] = target: T3, CD20-AxP (human, UniProt P11836 1-297); assay: as above
T3 construct: whole, on cells; Transiently expressed in HEK293F cells; also called AxP mutant; CD20 mutant (CD20-AxP)
T3 sequence (looked up): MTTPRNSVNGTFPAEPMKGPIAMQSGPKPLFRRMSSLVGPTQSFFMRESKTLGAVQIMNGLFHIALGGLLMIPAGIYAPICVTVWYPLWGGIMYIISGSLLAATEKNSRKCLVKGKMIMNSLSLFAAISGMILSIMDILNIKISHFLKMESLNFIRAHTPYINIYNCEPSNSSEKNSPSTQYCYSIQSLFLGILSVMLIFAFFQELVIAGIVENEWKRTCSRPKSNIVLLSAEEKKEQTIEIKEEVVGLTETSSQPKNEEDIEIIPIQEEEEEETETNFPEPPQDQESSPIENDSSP
Method: as §3, §4

CD20-AxP [4] = target: T3, CD20-AxP; assay: flow cytometry on HEK293F cells transiently expressing CD20-AxP (A170S/P172S); PE-conjugated goat anti-human IgG F(ab')2; MFI
Method: as §1, §2

Row | Binder | EC50 (read off the curve) (human CD20) | binding result (CD20 KDD mutant [1]) | % of wt CD20 binding (CD20 KDD mutant [2]) | % of wt CD20 binding (CD20-AxP [3]) | EC50 (read off the curve) (CD20-AxP [4])
1 | bsIgG1-huCD3-H1L1-FEALxCD20-7D8-FEAR (bispecific antibody, Made by 2-MEA-induced Fab-arm exchange; also called CD3xCD20; CD3x7D8) heavy 1: not shown light: not shown heavy 2: EVQLVESGGGLVQPDRSLRLSCAASGFTFHDYAMHWVRQAPGKGLEWVSTISWNSGTIGYADSVKGRFTISRDNAKNSLYLQMNSLRAEDTALYYCAKDIQYGNYYYGMDVWGQGTTVTVSSASTKGPSVFPLAPSSKSTSGGTAALGCLVKDYFPEPVTVSWNSGALTSGVHTFPAVLQSSGLYSLSSVVTVPSSSLGTQTYICNVNHKPSNTKVDKRVEPKSCDKTHTCPPCPAPEFEGGPSVFLFPPKPKDTLMISRTPEVTCVVVAVSHEDPEVKFNWYVDGVEVHNAKTKPREEQYNSTYRVVSVLTVLHQDWLNGKEYKCKVSNKALPAPIEKTISKAKGQPREPQVYTLPPSREEMTKNQVSLTCLVKGFYPSDIAVEWESNGQPENNYKTTPPVLDSDGSFFLYSRLTVDKSRWQQGNVFSCSVMHEALHNHYTQKSLSLSPGK VL: EIVLTQSPATLSLSPGERATLSCRASQSVSSYLAWYQQKPGQAPRLLIYDASNRATGIPARFSGSGSGTDFTLTISSLEPEDFAVYYCQQRSNWPITFGQGTRLEIK | ~0.1 µg/mL | no binding (tested: 0.0015-10 µg/mL) | 4% | 103% | ~0.2 µg/mL
2 | bsIgG1-huCD3-H1L1-FEALxCD20-11B8-FEAR (bispecific antibody, also called CD3x11B8; huCD3x11B8) heavy 1: not shown light: not shown heavy 2: EVQLVQSGGGLVHPGGSLRLSCTGSGFTFSYHAMHWVRQAPGKGLEWVSIIGTGGVTYYADSVKGRFTISRDNVKNSLYLQMNSLRAEDMAVYYCARDYYGAGSFYDGLYGMDVWGQGTTVTVSSASTKGPSVFPLAPSSKSTSGGTAALGCLVKDYFPEPVTVSWNSGALTSGVHTFPAVLQSSGLYSLSSVVTVPSSSLGTQTYICNVNHKPSNTKVDKRVEPKSCDKTHTCPPCPAPEFEGGPSVFLFPPKPKDTLMISRTPEVTCVVVAVSHEDPEVKFNWYVDGVEVHNAKTKPREEQYNSTYRVVSVLTVLHQDWLNGKEYKCKVSNKALPAPIEKTISKAKGQPREPQVYTLPPSREEMTKNQVSLTCLVKGFYPSDIAVEWESNGQPENNYKTTPPVLDSDGSFFLYSRLTVDKSRWQQGNVFSCSVMHEALHNHYTQKSLSLSPGK VL: EIVLTQSPATLSLSPGERATLSCRASQSVSSYLAWYQQKPGQAPRLLIYDASNRATGIPARFSGSGSGTDFTLTISSLEPEDFAVYYCQQRSDWPLTFGGGTKVEIK | ~0.1 µg/mL | – | 67% | 95% | ~0.2 µg/mL
3 | bsIgG1-huCD3-H1L1-FEALxCD20-2F2-FEAR (bispecific antibody, also called huCD3x2F2) heavy 1: not shown light: not shown heavy 2: EVQLVESGGGLVQPGRSLRLSCAASGFTFNDYAMHWVRQAPGKGLEWVSTISWNSGSIGYADSVKGRFTISRDNAKKSLYLQMNSLRAEDTALYYCAKDIQYGNYYYGMDVWGQGTTVTVSSASTKGPSVFPLAPSSKSTSGGTAALGCLVKDYFPEPVTVSWNSGALTSGVHTFPAVLQSSGLYSLSSVVTVPSSSLGTQTYICNVNHKPSNTKVDKRVEPKSCDKTHTCPPCPAPEFEGGPSVFLFPPKPKDTLMISRTPEVTCVVVAVSHEDPEVKFNWYVDGVEVHNAKTKPREEQYNSTYRVVSVLTVLHQDWLNGKEYKCKVSNKALPAPIEKTISKAKGQPREPQVYTLPPSREEMTKNQVSLTCLVKGFYPSDIAVEWESNGQPENNYKTTPPVLDSDGSFFLYSRLTVDKSRWQQGNVFSCSVMHEALHNHYTQKSLSLSPGK VL: EIVLTQSPATLSLSPGERATLSCRASQSVSSYLAWYQQKPGQAPRLLIYDASNRATGIPARFSGSGSGTDFTLTISSLEPEDFAVYYCQQRSNWPITFGQGTRLEIK | ~0.1 µg/mL | no binding (tested: 0.0015-10 µg/mL) | 4% | 98% | ~0.2 µg/mL
